Target: T1, Myc-tagged XDpr1a phosphorylated by CKIδ (Xenopus, UniProt Q8QG92 1-824, phosphorylated by CKIδ; sites not told)
T1 construct: Xenopus Dapper1a (XDpr1a), as m1; also called phosphorylated XDpr1a; XDpr1a in the presence of CKIδ
T1 sequence (looked up): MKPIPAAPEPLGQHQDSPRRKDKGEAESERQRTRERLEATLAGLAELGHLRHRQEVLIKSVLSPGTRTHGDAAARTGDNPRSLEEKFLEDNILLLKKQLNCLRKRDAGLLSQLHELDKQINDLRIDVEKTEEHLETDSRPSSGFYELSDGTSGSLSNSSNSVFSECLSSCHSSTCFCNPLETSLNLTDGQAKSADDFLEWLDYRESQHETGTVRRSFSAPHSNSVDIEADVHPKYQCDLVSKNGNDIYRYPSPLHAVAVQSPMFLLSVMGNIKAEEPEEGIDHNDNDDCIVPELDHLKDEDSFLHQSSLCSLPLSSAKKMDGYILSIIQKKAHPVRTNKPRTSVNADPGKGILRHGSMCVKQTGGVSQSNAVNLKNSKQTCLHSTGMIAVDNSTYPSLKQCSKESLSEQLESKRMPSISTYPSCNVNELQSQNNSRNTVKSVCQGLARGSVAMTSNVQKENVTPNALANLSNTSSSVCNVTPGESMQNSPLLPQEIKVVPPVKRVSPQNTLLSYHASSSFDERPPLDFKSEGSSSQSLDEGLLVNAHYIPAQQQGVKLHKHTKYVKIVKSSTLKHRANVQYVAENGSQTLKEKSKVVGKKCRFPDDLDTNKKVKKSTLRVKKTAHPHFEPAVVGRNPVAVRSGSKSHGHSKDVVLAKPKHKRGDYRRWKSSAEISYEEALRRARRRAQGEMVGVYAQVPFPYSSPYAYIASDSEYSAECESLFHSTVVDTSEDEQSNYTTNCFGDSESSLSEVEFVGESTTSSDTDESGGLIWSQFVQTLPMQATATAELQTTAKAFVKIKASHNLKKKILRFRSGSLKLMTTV
Experiment: co-IP; in vitro coimmunoprecipitation: [35S]methionine-labeled Myc:XDpr1a immunoprecipitated with anti-Myc antibodies and protein A agarose, 2 hours at room temperature, from a reaction containing HA-tagged XDsh in the absence or presence of CKIδ; washed three times with 50 mM Tris-HCl pH 7.4, 137 mM NaCl; SDS-PAGE, autoradiography, PhosphorImager quantitation (n = 4 trials)
Details: partners not purified

coimmunoprecipitation relative to the control without CKIδ: ~0.5 relative to no CKIδ (1.0)
B1: HA-tagged XDsh phosphorylated by CKIδ (natural protein, Xenopus, UniProt P51142 1-736, looked up)
chain: MAETKVIYHLDEEETPYLVKVPVPATDIRLRDFKAALGRGHAKYFFKAMDQDFGVVKEEISDDNAKLPCFNDRVVSWLASSEGSQPDSAPPAPATEVRPEPPPPVPPPIPPPPAERTSGIGDSRPPSFHPNVSGSTEQLDQDNESVISMRRDRVRRRESSEQAGVGRGVNGRTERHLSGYESSSTLLTSEIETSICDSEEDDTMSRFSSSTEQSSASRLLKRHRRRRKQRPPRLERTSSFSSVTDSTMSLNIITVTLNMEKYNFLGISIVGQSNERGDGGIYIGSIMKGGAVAADGRIEPGDMLLQVNDINFENMSNDDAVRVLRDIVHKPGPIVLTVAKCWDPSPQGYFTLPRNEPIHPIDPAAWVSHSAALSGSFPVYPGSASMSSMTSSTSVTETELSHALPPVSLFSLSVHTDLASVVKVMASPESGLEVRDRMWLKITIPNAFLGSDVVDWLYHHVEGFQDRREARKFASNLLKAGFIRHTVNKITFSEQCYYIFGDLTGCENYMTNLSLNDNDGSSGASDQDTLAPLPLPGASPWPLLPTFSYQYQAPHPYSTQPPAYHELSSYSYGMGSAGSQHSEGSRSSGSNRSDGGRGMQKDDRSGVAGVGGGDSKSGSGSESEYSTRSSIRRVGGGEAGPPSERSTSSRLPPHHPPSVHSYAAPGVPLSYNPMMLMMMPPPPLPPPGVCPPNSSVPPGAPPLVRDLASVPPELTATRQSFHMAMGNPSEFFVDVM
modifications: phosphorylated by CKIδ; sites not told
notes: Xenopus disheveled (XDsh), as m2; also called phosphorylated XDsh; XDsh in the presence of CKIδ

From publication PMC2679210, “Dpr Acts as a Molecular Switch, Inhibiting Wnt Signaling when Unphosphorylated, but Promoting Wnt Signaling when Phosphorylated by Casein Kinase Iδ/ε” (PLoS ONE, 2009)
